Where two headings read alike, the source gives them in different places.
Columns and labels:
PSTPIP = biological target: T1, PSTPIP (Mus musculus, UniProt P97814); assay: In vitro GST pull-down binding of PTP HSCF forms to GST PSTPIP; set-up: species or system murine; conditions: 1 or 10 μg/ml GST PST PIP
T1 construct: containing the full-length cDNA for PSTPIP (amino acids 2-415) was subcloned into pGEX4T-2; made in house; host or cells: E. coli DH5-alpha
T1 sequence (P97814 2-415): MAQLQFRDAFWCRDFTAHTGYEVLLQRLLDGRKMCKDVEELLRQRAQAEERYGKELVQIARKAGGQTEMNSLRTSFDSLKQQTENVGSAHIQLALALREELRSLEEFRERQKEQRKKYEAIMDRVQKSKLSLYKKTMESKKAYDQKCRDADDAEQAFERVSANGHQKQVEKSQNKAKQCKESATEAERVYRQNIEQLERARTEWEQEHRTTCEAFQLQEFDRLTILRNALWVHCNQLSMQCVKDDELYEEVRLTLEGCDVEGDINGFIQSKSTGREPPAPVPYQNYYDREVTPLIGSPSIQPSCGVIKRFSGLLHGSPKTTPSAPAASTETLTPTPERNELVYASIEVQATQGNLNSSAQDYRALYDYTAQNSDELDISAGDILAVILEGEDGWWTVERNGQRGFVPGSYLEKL
Description: The binding was carried out according to the method of Wong and Johnson (Wong et al., J. Biol. Chem. 271(35):20981-20984 (1996)). Briefly, 1 μg of plasmid with either the PSTPIP protein or PTP HSCF under the control of the Sp6 promoter was in vitro transcribed/translated using the Promega™ TnT Rabbit Reticulocyte™ system. Samples were diluted in 50 mM HEPES, pH 7.2, 1% triton X 100, 10% glycerol, 100 mM NaCl, 5 mM EDTA and 2 μg/ml each of leupeptin, pepstatin, aprotinin, and PMSF. […] This was reacted for 1 hour at 4° C. and then the resin washed 6 times in HEPES/Triton binding buffer before SDS gel electrophoresis. The peptides were synthesized on an automated Milligen 9050 Peptide Synthesizer using standard solid phase chemistry with FMOC protected amino acids on a p-alkoxybenzyl alcohol resin. Dried peptides were re-suspended in the HEPES/Triton Binding buffer at a concentration of 10 mg/ml. Peptide inhibition was performed by adding the peptide first to the in vitro translation product and then the GST-fusion followed by the GSH-Sepharose. […]
In vitro binding analyses between various PTP HSCF and PST PIP constructs were performed as previously described (Spencer et al, (1997), supra). […] Samples were than reacted with GST fusion proteins at various concentrations, and the bound proteins were centrifuged using glutathione-sepharose beads and analyzed on SDS polyacrylamide gels. […]

[1] = biological target: T2, full-length PSTPIP tagged with the FLAG epitope at the C-terminus (murine, UniProt P97814 1-415); assay: peptide competition of the GST-PST-rich+CTH PTP HSCF pulldown of in vitro translated PSTPIP
T2 construct: In vitro transcribed/translated in rabbit reticulocyte lysate, or expressed in COS cells
T2 sequence: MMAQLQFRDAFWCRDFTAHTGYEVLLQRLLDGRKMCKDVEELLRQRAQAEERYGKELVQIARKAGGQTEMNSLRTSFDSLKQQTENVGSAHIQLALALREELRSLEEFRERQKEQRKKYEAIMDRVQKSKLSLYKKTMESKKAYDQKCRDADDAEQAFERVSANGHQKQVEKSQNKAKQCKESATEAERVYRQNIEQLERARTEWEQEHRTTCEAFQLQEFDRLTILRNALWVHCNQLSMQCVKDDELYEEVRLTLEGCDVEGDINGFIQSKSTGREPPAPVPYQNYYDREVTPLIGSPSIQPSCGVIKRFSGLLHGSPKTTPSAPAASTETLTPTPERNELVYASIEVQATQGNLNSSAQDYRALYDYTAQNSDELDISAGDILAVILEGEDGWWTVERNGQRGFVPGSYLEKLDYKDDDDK
Description: This was reacted for 1 hour at 4° C. and then the resin washed 6 times in HEPES/Triton binding buffer before SDS gel electrophoresis. The peptides were synthesized on an automated Milligen 9050 Peptide Synthesizer using standard solid phase chemistry with FMOC protected amino acids on a p-alkoxybenzyl alcohol resin. Dried peptides were re-suspended in the HEPES/Triton Binding buffer at a concentration of 10 mg/ml. Peptide inhibition was performed by adding the peptide first to the in vitro translation product and then the GST-fusion followed by the GSH-Sepharose. The binding/washing steps were as previously described. The peptides synthesized and the PTPs they were derived from were:
The region of PTP HSCF which interacts with PSTPIP was identified by producing deletion mutants of the enzyme missing either the 20 amino acid C-terminal domain which is highly conserved in all of the PEST PTPs (Yang et al. (1993) supra, Matthews et al., (1992) supra, Cheng et al., (1996) supra, Huang et al., (1996) supra, Aoki et al., (1996) Dosil et al., (1996) supra and Kim et al., (1996) supra) or both this domain as well as the longer proline, serine and threonine rich region C-terminal to the catalytic domain (FIG. 4A). FIG. 4B-C reveal that deletion of the C-terminal 20 amino acid homology domain of PTP HSCF completely abolished the interaction between PTP HSCF and PSTPIP. Because this region is conserved in all PEST PTPs, it is possible that both PTP PEST (Yang et al., (1993) supra) as well as PTP PEP (Matthews et al., (1992) supra) also interact with PSTPIP. In order to examine this possibility, as well as to examine if the 20 amino acid C-terminal region is sufficient for this interaction, 20 residue long peptides derived from the homologous C-terminal domain of three PEST PTPs were used to compete with the interaction between PTP HSCF and PSTPIP (FIG. 4D). In this form of the assay, a GST fusion derived from the PST-rich and C-terminal homology regions of the phosphatase was used to precipitate in vitro translated PSTPIP in the presence of varying amounts of peptides. […]

[2] = test system: PST PIP - PTP HSCF association; assay: Coprecipitation of PST PIP and PTP HSCF from co-transfected COS cells; format: cell-based
Description: COS-7 cells were transfected by electroporation. Briefly, 1.5×10^6 COS-7 cells were mixed with 24 μg total DNA in PBS and electroporated at 960 μF, […] (Bio-Rad™ Gene Pulsar™). Following electroporation, cells were seeded in 10 cm dishes and incubated for 3 days. 10-cm dishes of transfected COS cells were washed twice with ice-cold PBS, and lysed in 1 ml of M-RIPA (50 mM Tris 7.4, 1% NP40, 0.25% DOC, 150 mM NaCl, 1 mM sodium ortho-vanadate, 1 mM NaF plus Complete™ Protease Inhibitors (Boehringer Mannheim)). Lysates were incubated for 15 minutes with 100 μl UltraLink Immobilized Protein A/G™ (Pierce) at 4° C., followed by centrifugation for 5 minutes. Supernatants were collected and stored at −70° C. or directly immunoprecipitated. 5 μg of M2 or 12CA5 was added to 500 μl of lysate and incubated overnight at 4° C. Ultralink Protein A/G™ was added and incubation continued for 2 hours at 4° C. The immune complexes were washed 3 times with M-RIPA. The proteins were subjected to SDS-PAGE and transferred to nitrocellulose in 1X Transfer Buffer™ (Novex). Immunoblots were blocked overnight at 4° C. in 3% milk/PBS. To detect Flag-tagged PIP, blots were incubated with 10 μg/ml Bio-M2 (Biotinylated anti-FLAG monoclonal Ab, KODAK) followed by incubation in 10 μg/ml streptavidin-HRP (UBI). To detect HA-tagged PTPhscf, blots were incubated in anti-(HA)-peroxidase (Boehringer Mannheim) as per manufacturer's instructions. To detect phosphotyrosine, blots were incubated in HRP-conjugated 4G10 (anti-phosphotyrosine monoclonal, UBI) as per manufacture's instructions.
In vitro binding analyses between various PTP HSCF and PST PIP constructs were performed as previously described (Spencer et al, (1997), supra). Briefly, plasmids were transcribed and translated in vitro using the TnT Rabbit Reticulocyte Lysate System (Promega). Samples were diluted in 50 mM HEPES, pH 7.2, 1% triton X-100, 10% glycerol, 100 mM NaCl, and 2 μg/ml each of leupeptin, pepstatin, aprotinin and PMSF (lysis buffer). Samples were than reacted with GST fusion proteins at various concentrations, and the bound proteins were centrifuged using glutathione-sepharose beads and analyzed on SDS polyacrylamide gels. C-terminally-derived peptide inhibition studies were performed by incubating the GST fusion protein binding reactions in the presence of 10 μg/ml of the indicated peptides. Peptides were produced by FMOC-protected amino acids as previously described (Spencer et al, (1997), supra). In vivo interactions between various forms of PTP HSCF and PST PIP were also performed as previously described (Spencer et al, (1997), supra). Briefly, COS cells were transfected with various constructs, and after 48 hours, lysates were prepared and immunoprecipitated with antibodies to either the FLAG epitope contained at the C-terminus of PST PIP or an HA epitope contained at the N-terminus of PTP HSCF. The resultant blots were probed with anti-FLAG to detect PST PIP, anti-HA to detect PTP HSCF or anti-phosphotyrosine to detect levels of this modified amino acid in each protein.

Molecule | binding of in vitro translated PTP HSCF forms to GST PSTPIP (PSTPIP) | lowest peptide concentration that effectively blocks the interaction [1] [nM] | in vivo association (coprecipitation) of PST PIP and PTP HSCF [2] | in vivo association (coprecipitation) of PST PIP and PTP HSCF ([2]; listed as PTP HSCF444+450)
deletion of the C-terminal 20 amino acid homology domain of PTP HSCF: PTP HSCF deletion mutant missing the C-terminal homology domain (protein, UniProt Q99952 1-440, looked up, fragment) MSRSLDSARSFLERLEARGGREGAVLAGEFSDIQACSAAWKADGVCSTVAGSRPENVRKNRYKDVLPYDQTRVILSLLQEEGHSDYINGNFIRGVDGSLAYIATQGPLPHTLLDFWRLVWEFGVKVILMACREIENGRKRCERYWAQEQEPLQTGLFCITLIKEKWLNEDIMLRTLKVTFQKESRSVYQLQYMSWPDRGVPSSPDHMLAMVEEARRLQGSGPEPLCVHCSAGCGRTGVLCTVDYVRQLLLTQMIPPDFSLFDVVLKMRKQRPAAVQTEEQYRFLYHTVAQMFCSTLQNASPHYQNIKENCAPLYDDALFLRTPQALLAIPRPPGGVLRSISVPGSPGHAMADTYAVVQKRGAPAGAGSGTQTGTGTGTGARSAEEAPLYSKVTPRAQRPGAHAEDARGTLPGRVPADQSPAGSGAYEDVAGGAQTGGLGF | completely abolished the interaction | – | – | –
GFNLRIGRPKGPRDPPAEWT (Synthetic, FMOC chemistry; also called proline rich peptide derived from the C-terminal homology region of PTP HSCF) [PXXP-HSCF peptide (PTP HSCF 432-451)] | – | ~800 | – | –
GFGNRFSKPKGPRNPPSAW (Synthetic, FMOC chemistry; also called proline rich peptide derived from the C-terminal homology region of PTP PEP) [PXXP-PEP peptide (PTP PEP 782-800)] | – | ~800 | – | –
R444+W450: PTP HSCF double mutant with R444 and W450 mutated to alanine (protein, left off: small tags and cut ends, PTP HSCF double mutant with R444 and W450 mutated to alanine) MSRHTDLVRSFLEQLEARDYREGAILAREFSDIKARSVAWKSEGVCSTKAGSRLGNTNKNRYKDVVAYDETRVILSLLQEEGHGDYINANFIRGIDGSQAYIATQGPLPHTLLDFWRLVWEFGVKVILMACQETENGRRKCERYWAREQEPLKAGPFCITLTKETTLNADITLRTLQVTFQKEFRSVHQLQYMSWPDHGVPSSSDHILTMVEEARCLQGLGPGPLCVHCSAGCGRTGVLCAVDYVRQLLLTQTIPPNFSLFQVVLEMRKQRPAAVQTEEQYRFLYHTVAQLFSRTLQDTSPHYQNLKENCAPICKEAFSLRTSSALPATSRPPGGVLRSISVPAPPTLPMADTYAVVQKRGASAGTGPGPRAPTSTDTPIYSQVAPRAQRPVAHTEDAQGTTALRRVPADQNSSGPDAYEEVTDGAQTGGLGFNLRIGRPKGPADPPAEATRV | stronger inhibitory effect on binding to PST PIP | – | as poor at interacting in vivo with PST PIP as the mutant which was missing the entire C-terminal proline rich domain | complete loss of coprecipitation
GFGNRCGKPKGPRDPPSEWT (Synthetic, FMOC chemistry; also called proline rich peptide derived from the C-terminal homology region of PTP PEST) [PXXP-PEST peptide (PTP PEST 761-780)] | – | ~800 | – | –

From patent publication US6887705B1, “Tyrosine phosphorylated cleavage furrow-associated proteins (PSTPIPs)” (Genentech, Inc., priority 1997, dated 2005)
